The values that follow come from patent publication US20220144930A1.

Test [1] has as its target VEGF-165, VEGFC and VEGFD mixture. The test can be described thus: cell-based or functional assay.
Test [2] has as its target recombinant human VEGF165 protein (human) (UniProt P15692). Description: cell-based or functional assay.

Sequence of EYLEA (Fc fusion) (chain): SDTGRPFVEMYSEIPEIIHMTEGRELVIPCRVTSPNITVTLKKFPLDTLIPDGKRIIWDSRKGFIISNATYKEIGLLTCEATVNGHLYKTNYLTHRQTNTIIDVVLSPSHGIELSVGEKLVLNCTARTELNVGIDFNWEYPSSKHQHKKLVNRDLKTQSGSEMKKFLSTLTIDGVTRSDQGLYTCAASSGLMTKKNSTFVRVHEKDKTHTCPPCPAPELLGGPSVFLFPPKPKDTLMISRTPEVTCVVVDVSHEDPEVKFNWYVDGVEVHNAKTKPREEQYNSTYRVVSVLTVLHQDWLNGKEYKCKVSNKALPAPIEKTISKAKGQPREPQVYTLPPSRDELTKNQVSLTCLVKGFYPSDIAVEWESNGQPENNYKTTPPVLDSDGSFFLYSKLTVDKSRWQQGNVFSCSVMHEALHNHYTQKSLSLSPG

Turning to Avastin (bevacizumab) (antibody), in test [1], the EC50(nM), neutralizing VEGF165, VEGFC and VEGFD mixture, HUVEC proliferation is 0.77 nM; the Maximum neutralization rate Emax (%), VEGF165, VEGFC and VEGFD mixture, HUVEC proliferation turned out to be 58.5%.

For the substance EYLEA (Fc fusion), in test [2], the EC50(nM), neutralizing VEGF165 at 10 ng/mL, HUVEC proliferation was 0.16 nM; the EC50(nM), neutralizing VEGF165 at 100 ng/mL, HUVEC proliferation was found to be 2.9 nM; the EC50(nM), neutralizing VEGF165 at 1000 ng/mL, HUVEC proliferation turned out to be 40.2 nM; the maximum neutralization rate (%), VEGF165 at 10 ng/mL, HUVEC proliferation was 101%. Besides, in test [2], the maximum neutralization rate (%), VEGF165 at 100 ng/mL, HUVEC proliferation was 98.7% and the maximum neutralization rate (%), VEGF165 at 1000 ng/mL, HUVEC proliferation stood at 80.2%.
